Reference: PMC3243626 (The EMBO Journal, 2011)
Square brackets hold non-standard residues; d marks the D form. Ends that are not written are not given here. * marks the point of attachment. Biotin = O=C1N[C@H]2[C@H](CS[C@H]2CCCCC(=O)*)N1; pT = C[C@@H](OP(=O)(O)O)[C@H](N)C(=O)O; pS = N[C@@H](COP(=O)(O)O)C(=O)O

T1: GST–Dpb11-N (BRCT1&2, aa 1–275) (S. cerevisiae, UniProt P47027 1-275)
T1 sequence (looked up): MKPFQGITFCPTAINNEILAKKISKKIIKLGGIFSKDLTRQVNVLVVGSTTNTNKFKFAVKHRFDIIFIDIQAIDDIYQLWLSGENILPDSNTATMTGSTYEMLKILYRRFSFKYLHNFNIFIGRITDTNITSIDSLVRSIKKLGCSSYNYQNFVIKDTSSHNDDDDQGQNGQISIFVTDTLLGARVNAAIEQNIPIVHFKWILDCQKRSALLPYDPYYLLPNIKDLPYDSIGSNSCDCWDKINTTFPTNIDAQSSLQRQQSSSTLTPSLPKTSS


Columns and labels:
[1] = molecular target: T1, GST–Dpb11-N (BRCT1&2, aa 1–275); assay: pull-down
[2] = molecular target: immunopurified Mec1–18myc–Ddc2 (S. cerevisiae, UniProt P38111 1-2368; Q04377 1-747); assay: pull-down
Sequence of immunopurified Mec1–18myc–Ddc2 (P38111 whole entry, chain 1 of 2): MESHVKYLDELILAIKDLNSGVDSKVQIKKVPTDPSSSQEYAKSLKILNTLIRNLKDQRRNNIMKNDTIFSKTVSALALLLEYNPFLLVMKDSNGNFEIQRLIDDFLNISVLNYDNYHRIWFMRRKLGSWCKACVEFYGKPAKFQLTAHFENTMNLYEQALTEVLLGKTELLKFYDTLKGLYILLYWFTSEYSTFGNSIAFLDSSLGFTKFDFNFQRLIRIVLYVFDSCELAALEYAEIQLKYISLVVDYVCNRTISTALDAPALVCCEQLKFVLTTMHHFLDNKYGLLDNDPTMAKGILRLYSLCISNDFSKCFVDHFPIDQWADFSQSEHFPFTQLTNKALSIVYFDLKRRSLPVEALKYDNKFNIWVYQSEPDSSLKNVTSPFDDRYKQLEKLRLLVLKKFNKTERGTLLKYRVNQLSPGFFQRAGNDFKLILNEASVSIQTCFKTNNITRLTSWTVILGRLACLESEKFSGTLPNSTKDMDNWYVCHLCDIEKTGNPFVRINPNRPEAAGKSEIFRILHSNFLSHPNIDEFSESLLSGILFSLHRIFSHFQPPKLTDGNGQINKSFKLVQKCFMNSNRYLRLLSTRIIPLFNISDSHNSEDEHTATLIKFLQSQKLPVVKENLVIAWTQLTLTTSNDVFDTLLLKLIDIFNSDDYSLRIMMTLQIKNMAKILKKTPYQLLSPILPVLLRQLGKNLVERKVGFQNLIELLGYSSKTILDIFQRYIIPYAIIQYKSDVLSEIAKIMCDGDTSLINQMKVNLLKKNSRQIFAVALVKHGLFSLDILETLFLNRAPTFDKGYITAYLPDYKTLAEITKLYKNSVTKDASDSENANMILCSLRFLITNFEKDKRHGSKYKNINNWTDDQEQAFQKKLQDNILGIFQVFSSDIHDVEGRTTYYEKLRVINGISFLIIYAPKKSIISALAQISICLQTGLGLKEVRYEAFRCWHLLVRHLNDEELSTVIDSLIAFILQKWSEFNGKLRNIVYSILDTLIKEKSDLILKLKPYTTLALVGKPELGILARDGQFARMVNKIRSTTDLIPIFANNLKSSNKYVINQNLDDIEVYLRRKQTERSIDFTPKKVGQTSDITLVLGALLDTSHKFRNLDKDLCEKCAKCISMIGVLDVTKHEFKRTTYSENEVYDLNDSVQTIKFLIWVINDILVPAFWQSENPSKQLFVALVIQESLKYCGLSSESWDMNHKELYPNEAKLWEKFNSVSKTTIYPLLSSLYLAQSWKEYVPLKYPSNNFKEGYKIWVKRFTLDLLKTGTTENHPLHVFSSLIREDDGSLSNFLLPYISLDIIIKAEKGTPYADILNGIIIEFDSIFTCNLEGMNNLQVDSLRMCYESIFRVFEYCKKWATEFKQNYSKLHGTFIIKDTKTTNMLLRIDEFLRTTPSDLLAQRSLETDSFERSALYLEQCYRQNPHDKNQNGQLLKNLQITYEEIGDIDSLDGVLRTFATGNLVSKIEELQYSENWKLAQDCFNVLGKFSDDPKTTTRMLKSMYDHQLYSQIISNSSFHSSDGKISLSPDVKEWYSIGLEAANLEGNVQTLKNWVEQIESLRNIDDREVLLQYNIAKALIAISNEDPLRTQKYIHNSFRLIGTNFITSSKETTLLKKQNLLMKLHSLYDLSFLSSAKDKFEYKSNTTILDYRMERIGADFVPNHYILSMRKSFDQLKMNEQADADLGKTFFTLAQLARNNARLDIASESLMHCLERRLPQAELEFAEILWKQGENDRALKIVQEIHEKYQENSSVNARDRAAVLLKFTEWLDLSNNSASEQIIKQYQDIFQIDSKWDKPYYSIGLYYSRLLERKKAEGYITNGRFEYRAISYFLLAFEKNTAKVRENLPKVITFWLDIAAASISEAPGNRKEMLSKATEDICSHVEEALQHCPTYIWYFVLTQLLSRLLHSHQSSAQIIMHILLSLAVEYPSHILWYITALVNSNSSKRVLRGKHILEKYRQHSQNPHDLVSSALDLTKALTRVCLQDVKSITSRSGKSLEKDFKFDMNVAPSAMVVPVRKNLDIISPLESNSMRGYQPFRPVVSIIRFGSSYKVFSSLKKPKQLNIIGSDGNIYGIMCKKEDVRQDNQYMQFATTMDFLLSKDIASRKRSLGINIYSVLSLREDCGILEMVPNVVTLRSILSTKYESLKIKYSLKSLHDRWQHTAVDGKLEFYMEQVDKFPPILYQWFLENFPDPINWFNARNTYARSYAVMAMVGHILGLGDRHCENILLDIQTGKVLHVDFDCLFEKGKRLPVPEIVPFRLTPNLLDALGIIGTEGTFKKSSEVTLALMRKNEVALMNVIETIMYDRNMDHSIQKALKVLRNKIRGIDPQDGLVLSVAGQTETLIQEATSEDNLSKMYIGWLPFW
Sequence of immunopurified Mec1–18myc–Ddc2 (Q04377 whole entry, chain 2 of 2): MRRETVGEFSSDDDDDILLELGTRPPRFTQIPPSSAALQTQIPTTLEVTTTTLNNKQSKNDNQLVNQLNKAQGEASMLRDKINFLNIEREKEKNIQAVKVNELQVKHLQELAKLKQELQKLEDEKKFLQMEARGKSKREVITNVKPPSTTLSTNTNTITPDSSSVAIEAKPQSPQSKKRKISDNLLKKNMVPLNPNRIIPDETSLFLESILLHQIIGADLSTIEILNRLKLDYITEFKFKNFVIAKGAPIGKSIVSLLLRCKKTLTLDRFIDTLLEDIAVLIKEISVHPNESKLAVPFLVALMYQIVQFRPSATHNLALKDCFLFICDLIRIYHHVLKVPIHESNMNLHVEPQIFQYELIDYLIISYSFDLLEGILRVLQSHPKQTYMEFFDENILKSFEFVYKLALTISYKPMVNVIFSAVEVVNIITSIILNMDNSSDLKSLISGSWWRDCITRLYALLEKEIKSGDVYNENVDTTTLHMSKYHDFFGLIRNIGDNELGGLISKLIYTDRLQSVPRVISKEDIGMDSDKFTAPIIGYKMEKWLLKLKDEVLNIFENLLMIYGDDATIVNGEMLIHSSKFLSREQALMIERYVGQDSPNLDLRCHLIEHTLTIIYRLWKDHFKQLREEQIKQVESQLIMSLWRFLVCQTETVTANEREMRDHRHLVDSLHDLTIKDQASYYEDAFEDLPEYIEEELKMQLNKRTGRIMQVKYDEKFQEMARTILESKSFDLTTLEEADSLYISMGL

| Binder | binding result [1] | binding result [2] |
| --- | --- | --- |
| {Biotin-EAhx}-GISAQKGPVFHSTGQTEEIKTQIIN[pS]PEQNALNAT (peptide, UniProt P14737 437-471, looked up) [Rad9 phospho-S462 peptide (biotinylated 35mer)] | binds | – |
| TGQTEEIKTQIINSPEQNALNATFE[pT]PVTLSRINF (peptide, UniProt P14737 449-483, looked up, not fully specified (residue 23, N-terminus)) [Rad9 phospho-T474 peptide (biotinylated 35mer)] | binds | – |
| recombinant, full-length, His-tagged Dpb11 (natural protein, S. cerevisiae, UniProt P47027 1-764, looked up) MKPFQGITFCPTAINNEILAKKISKKIIKLGGIFSKDLTRQVNVLVVGSTTNTNKFKFAVKHRFDIIFIDIQAIDDIYQLWLSGENILPDSNTATMTGSTYEMLKILYRRFSFKYLHNFNIFIGRITDTNITSIDSLVRSIKKLGCSSYNYQNFVIKDTSSHNDDDDQGQNGQISIFVTDTLLGARVNAAIEQNIPIVHFKWILDCQKRSALLPYDPYYLLPNIKDLPYDSIGSNSCDCWDKINTTFPTNIDAQSSLQRQQSSSTLTPSLPKTSSLLNKFKPKGEKIWDKAMSLQQHSKTNFSVLGQSPLSINNKQEDLSDNSTLIFKNCAFIIHHIFPGNHRSILTKIVVQNGGKIETSYLSGIYDHSYYIIPSNKALDSFNDLPEIIDDNDGIVTEFFIERCLYYQKLLHPIDLWSKPFLSTIEFQVSSSSKLLHHEFSSSPFLNVTITGFSGVELLHLTKVLNLLKPMGINYVEYLNKSTDILLINLAALPSIPKTHPLWSNEFSDLFTQFCINNNNDDPGDNNRKDFQNNSILRNSMKRKIEYIKKFHSIPVVTPAFIFKLLSAASGENNEIFLNNIKWCIICPRGHKDDFKCKIKKPYYTSISSEKKYQNNDPKIDKTILLKRNNSSLSEHSMKDTKNELLQKIRETDSGRKKRSVSSSIMDVSSERQMPDTKRIKLESLPKNFVPKQIKRTTSWGTIMSENVPTEQPTAISNPEEIPRTEEVSHTQVTYGSIQDKKRTASLEKPMRRQTRNQTKELDS | – | binds |
